For test [1], the target named is T1, FLAG-tagged Ephexin4^E295A (murine, UniProt Q3U5C8 1-713, E295A).
T1 sequence (looked up): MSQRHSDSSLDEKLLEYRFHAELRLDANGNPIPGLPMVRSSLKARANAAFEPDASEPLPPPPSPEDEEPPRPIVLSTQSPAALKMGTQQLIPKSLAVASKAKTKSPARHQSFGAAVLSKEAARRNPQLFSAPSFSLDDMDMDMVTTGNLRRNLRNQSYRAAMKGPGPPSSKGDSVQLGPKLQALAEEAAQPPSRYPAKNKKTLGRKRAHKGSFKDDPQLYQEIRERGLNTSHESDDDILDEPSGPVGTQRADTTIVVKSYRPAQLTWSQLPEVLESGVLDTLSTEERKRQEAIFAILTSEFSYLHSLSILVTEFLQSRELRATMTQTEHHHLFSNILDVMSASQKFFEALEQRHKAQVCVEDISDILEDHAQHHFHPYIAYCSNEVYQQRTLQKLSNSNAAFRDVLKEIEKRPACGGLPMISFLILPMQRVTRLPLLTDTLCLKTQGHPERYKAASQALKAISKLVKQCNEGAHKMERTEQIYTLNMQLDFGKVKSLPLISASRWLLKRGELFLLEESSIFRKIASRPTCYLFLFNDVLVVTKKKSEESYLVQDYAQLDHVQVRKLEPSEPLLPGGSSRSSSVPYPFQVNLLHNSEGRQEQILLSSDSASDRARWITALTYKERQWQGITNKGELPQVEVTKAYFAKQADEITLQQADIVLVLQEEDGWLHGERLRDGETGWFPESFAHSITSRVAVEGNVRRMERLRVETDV
As to the kind of experiment: cell-based or functional assay.

The target of test [2] is T2, FLAG-tagged wild-type Ephexin4 (murine, UniProt Q3U5C8 1-713).
T2 sequence (looked up): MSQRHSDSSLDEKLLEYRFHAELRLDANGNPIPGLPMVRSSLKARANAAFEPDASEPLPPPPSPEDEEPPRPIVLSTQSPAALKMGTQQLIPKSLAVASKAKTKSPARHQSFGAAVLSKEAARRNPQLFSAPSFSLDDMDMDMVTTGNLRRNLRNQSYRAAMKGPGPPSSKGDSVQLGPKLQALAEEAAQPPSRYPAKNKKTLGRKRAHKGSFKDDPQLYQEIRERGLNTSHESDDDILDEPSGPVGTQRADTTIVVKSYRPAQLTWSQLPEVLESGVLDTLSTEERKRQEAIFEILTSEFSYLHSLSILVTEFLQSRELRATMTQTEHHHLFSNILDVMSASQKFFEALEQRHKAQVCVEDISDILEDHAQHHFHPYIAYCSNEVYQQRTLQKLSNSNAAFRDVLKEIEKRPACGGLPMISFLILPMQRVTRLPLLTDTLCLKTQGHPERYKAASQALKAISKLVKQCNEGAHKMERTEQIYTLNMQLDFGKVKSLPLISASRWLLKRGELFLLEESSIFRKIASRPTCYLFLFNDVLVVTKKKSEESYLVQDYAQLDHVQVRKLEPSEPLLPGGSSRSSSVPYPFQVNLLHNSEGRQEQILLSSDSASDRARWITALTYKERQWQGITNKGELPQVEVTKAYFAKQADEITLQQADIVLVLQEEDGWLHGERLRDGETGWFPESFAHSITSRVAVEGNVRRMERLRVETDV
As to the kind of experiment: cell-based or functional assay.

B1: GFP-RhoG (natural protein)
chain: not shown
Regarding B1, in test [1], the “level of active (GTP-bound) RhoG precipitated by GST-Elmo2^N-term from 293T cells expressing Ephexin4^E295A, against control cells (Figure 3a,b)” value was determined as 2.9 fold and the “level of active endogenous RhoG (293T) precipitated by GST-Elmo2^N-term from cells expressing Ephexin4^E295A (Figure 3c,d)” value turned out to be 2.6 fold. In addition, in test [2], the “level of active (GTP-bound) RhoG precipitated by GST-Elmo2^N-term from 293T cells expressing wild-type Ephexin4, against control cells (Figure 3a,b)” value was 1.6 fold and the “level of active endogenous RhoG (293T) precipitated by GST-Elmo2^N-term from cells expressing wild-type Ephexin4 (Figure 3c,d)” value came to 1.6 fold.
